# Source: PMC4813677
# Target: pyruvate kinase M2 (PKM2) (human (endogenous in monocytes and macrophages)) (UniProt P14618)
# Test: cross-linking
# Chain of pyruvate kinase M2 (PKM2), P14618 1-531 (enzyme; other documents disagree on this pair) (P14618 whole entry): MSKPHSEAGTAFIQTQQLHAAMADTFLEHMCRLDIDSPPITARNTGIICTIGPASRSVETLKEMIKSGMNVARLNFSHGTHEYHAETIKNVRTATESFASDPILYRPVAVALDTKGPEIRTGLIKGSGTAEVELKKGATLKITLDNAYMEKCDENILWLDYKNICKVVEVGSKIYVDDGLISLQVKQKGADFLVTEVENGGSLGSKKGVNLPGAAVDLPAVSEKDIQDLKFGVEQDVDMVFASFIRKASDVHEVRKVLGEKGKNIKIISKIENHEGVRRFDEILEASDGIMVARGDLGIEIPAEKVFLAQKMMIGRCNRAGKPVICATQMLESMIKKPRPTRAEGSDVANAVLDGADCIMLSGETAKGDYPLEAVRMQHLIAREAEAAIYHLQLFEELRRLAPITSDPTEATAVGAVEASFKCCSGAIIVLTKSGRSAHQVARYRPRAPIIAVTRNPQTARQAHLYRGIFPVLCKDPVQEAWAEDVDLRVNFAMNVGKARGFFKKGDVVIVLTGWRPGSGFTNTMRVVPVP
substance,measurement,value
"pyruvate kinase M2 (PKM2), P14618 1-531 (enzyme; other documents disagree on this pair)",stoichiometry N,2
